Results: paper PMC4446433, “Crystal structure of the Bloom's syndrome helicase indicates a role for the HRDC domain in conformational changes” (Nucleic Acids Research, 2015)

Target: T1, BLM^636–1072, including the RecA domains (human, UniProt P54132 636-1072)
T1 construct: also called RecA core; D1/D2 domains
Test: BLI; biotinylated HRDC domain immobilised on streptavidin biosensors, RecA domains in solution, in the presence of ADP or ATP; 20-mM HEPES pH 7.5, 200-mM NaCl, 5% glycerol; 60-s windows; Octet RED384; apparent
Conditions: both partners purified

T1 sequence (P54132 636-1072): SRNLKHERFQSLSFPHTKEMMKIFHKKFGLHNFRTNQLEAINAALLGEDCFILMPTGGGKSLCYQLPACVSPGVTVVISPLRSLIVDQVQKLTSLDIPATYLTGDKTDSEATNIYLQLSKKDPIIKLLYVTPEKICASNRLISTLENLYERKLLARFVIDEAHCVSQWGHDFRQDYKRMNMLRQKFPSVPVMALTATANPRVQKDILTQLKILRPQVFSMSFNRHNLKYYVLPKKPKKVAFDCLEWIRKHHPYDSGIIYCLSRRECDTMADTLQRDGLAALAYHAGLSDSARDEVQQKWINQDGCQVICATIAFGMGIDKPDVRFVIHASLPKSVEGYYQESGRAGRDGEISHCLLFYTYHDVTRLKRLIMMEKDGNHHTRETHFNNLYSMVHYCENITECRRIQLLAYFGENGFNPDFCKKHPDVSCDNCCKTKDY

- Kd: 30 to 100 µM
B1: BLM^1206–1298, encoding the HRDC domain (domain or fragment, human, UniProt P54132 1206-1298, looked up)
chain: AKVSQREEMVKKCLGELTEVCKSLGKVFGVHYFNIFNTVTLKKLAESLSSDPEVLLQIDGVTEDKLEKYGAEVISVLQKYSEWTSPAEDSSPG
modifications: biotin (on the C-terminal biotin acceptor sequence)
notes: The His10 tag is TEV-cleavable, but no cleavage is described; also called isolated HRDC domain; biotinylated HRDC domain; source: E. coli in TB medium with biotin, purified (Ni-IDA, S75 Superdex)
